{
  "source": "paper PMC3393671",
  "about": "“A Toxoplasma gondii Pseudokinase Inhibits Host IRG Resistance Proteins” (PLoS Biology, 2012)",
  "binders": {"B1": {"name": "ROP5BI pseudokinase domain (domain or fragment, Toxoplasma gondii (type I))", "chain": "EAGDSFMRDLLKREEELIGYCREEALKEPAAMVEAVTATVWPQNAETTVDSLLSQGERKLKLVEPLRVGDRSVVFLVRDVERLEDFALKVFTMGAENSRSELERLHEATFAAARLLGESPEEARDRRRLLLPSDAVAVQSQPPFAQLSPGQDDYAVANYLLLMPAASVDLELLFSTLDFVYVFRGDEGILALHILTAQLIRLAANLQSKGLVHGHFTPDNLFIMPDGRLMLGDVSALWKVGTRGPASSVPVTYAPREFLNASTATFTHALNAWQLGLSIYRVWCLFLPFGLVTPGIKGSWKRPSLRVPGTDSLAFGSCTPLPDFVKTLIGRFLNFDRRRRLLPLEAMETPEFLQLQNEISSSLSTGQ", "notes": "pseudokinase domain of ROP5 isoform B of a type I T. gondii strain (ROP5BI); In one NMR experiment [13C]-labelled on the Cε of methionines; also called purified pseudokinase domain protein ROP5BI; source: purified"}},
  "molecular_target": "T1, Irga6 (GST tag cleaved off) (mouse, UniProt Q9QZ85 1-411)",
  "T1 construct": "Irga6, mouse IRG protein, cleaved from the GST fusion as a near-native protein; Lacks the N-terminal myristoylation; In one NMR experiment [13C]-Met labelled; also called wt Irga6; purified Irga6; source: E. coli BL21 (pGEX-4T-2), purified (Glutathione Sepharose, thrombin cleavage, Superdex 75); not shown: GST, N-terminal, cleaved",
  "T1 sequence": "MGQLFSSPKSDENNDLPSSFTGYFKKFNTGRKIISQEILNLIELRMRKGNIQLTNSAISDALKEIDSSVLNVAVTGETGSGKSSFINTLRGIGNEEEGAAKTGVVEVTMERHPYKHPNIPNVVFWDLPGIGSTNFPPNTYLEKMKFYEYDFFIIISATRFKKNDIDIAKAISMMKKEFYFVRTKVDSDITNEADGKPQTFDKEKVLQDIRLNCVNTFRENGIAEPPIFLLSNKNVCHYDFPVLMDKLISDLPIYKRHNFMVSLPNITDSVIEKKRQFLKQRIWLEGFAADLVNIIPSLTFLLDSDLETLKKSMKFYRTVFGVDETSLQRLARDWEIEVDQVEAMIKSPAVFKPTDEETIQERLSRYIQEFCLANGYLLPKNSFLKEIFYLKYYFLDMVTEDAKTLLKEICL",
  "experiment": "NMR titration; 13C-1H HSQC of [13C]-Met labelled ROP5BI without or with unlabeled Irga6; 30°C, 800 MHz",
  "conditions": "both partners purified",
  "data": [
    {"binder": "B1", "values": [
      {"measurement": "binding result", "result": "binds"}
    ]}
  ]
}
